Target: SUN domain of human SUN1 (amino acid residues 616–812), tags removed (human)
Assay: SEC-MALS; co-expressed and co-purified samples at >1 mg/ml on Superdex 200 Increase 10/300 GL in 20 mM Tris pH 8.0, 150 mM KCl, 2 mM DTT

KASH domain of human Nesprin-1 (KASH1, amino acid residues 8769–8797), tags removed, sequence (Q8NF91 8769-8797): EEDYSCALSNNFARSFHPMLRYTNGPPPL

Substance: KASH domain of human Nesprin-1 (KASH1, amino acid residues 8769–8797), tags removed (from UniProt Q8NF91 8769-8797) (domain or fragment)
- stoichiometry N (binder:target ratio (6:6)): 1

From paper PMC7800377
